Read-outs that look alike come from different tables or passages of the source.

The source of these data is patent US20220177587A1, “METHODS AND USES OF VARIANT CD80 FUSION PROTEINS AND RELATED CONSTRUCTS” (Alpine Immune Sciences, Inc., priority 2018, published 2022).

For assay [1], the target named is PD-L1 (human) (UniProt Q9NZQ7). As to the kind of experiment: flow cytometry, CHO cells expressing huPD-L1.
For assay [2], the target named is human CTLA-4 (human) (UniProt P16410). As to the kind of experiment: flow cytometry, CHO cells expressing huCTLA-4. Background: Flow cytometry measures light scatter and fluorescence of single cells or particles in a stream.
Target sequence in this assay (P16410 36-223): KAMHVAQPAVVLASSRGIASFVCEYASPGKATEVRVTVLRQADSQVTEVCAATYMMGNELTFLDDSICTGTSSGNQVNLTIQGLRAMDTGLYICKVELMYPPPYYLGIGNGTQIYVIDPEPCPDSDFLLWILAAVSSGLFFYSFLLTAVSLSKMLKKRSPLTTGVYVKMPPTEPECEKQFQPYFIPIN
For assay [3], the target named is CD28 (human) (UniProt P10747). Nature of the assay: flow cytometry, Jurkat/IL2 reporter cells (CD28).
For assay [4], the target named is CD28 (human) (UniProt P10747). Nature of the assay: flow cytometry, Jurkat cells (CD28).
The target of assay [5] is human CTLA-4 (human) (UniProt P16410). As to the kind of experiment: flow cytometry, CHO cells stably expressing CTLA4.
Assay [6] concerns the target PD-L1 (human) (UniProt Q9NZQ7). As to the kind of experiment: flow cytometry, CHO cells stably expressing PD-L1.
Assay [7] addresses CD28 (human) (UniProt P10747). As to the kind of experiment: flow cytometry, Jurkat cells (CD28). The source holds these as a separate data set.
In assay [8] the target is human CTLA-4 (human) (UniProt P16410). As to the kind of experiment: flow cytometry, CHO cells stably expressing CTLA4. The source holds these as a separate data set.
Target sequence in this assay (P16410 36-223): as above
In assay [9] the target is PD-L1 (human) (UniProt Q9NZQ7). Nature of the assay: flow cytometry, CHO cells stably expressing PD-L1. This is another data set of the same source.
Target sequence in this assay (Q9NZQ7 19-290): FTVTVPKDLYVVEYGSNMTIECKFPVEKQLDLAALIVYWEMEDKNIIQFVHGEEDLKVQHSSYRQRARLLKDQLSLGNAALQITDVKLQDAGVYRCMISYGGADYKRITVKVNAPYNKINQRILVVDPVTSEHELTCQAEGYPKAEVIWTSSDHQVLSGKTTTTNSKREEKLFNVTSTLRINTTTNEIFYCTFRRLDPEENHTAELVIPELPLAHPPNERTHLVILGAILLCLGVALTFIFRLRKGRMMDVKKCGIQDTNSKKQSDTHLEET
The target in assay [10] is PD-L1 (human) (UniProt Q9NZQ7). As to the kind of experiment: flow cytometry, MFI on PD-L1 cells over MFI on CD28 cells.
Target sequence in this assay (Q9NZQ7 19-290): as above
Assay [11] addresses CD28 (human) (UniProt P10747).
The target in assay [12] is CD28 (human) (UniProt P10747). This is another data set of the same source.

Chain of wild-type CD80 IgV-Fc (inert), as in Example 12 (Fc fusion) (chain): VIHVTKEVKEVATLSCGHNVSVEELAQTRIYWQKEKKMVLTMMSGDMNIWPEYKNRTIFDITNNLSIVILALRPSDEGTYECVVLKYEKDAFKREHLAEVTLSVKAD

Substance “variant CD80 IgV-Fc E35D/M47V/V68M (Fc fusion)” showed an MFI at 33.3 nM in [1] of 16600 MFI.

For variant CD80 IgV-Fc E35D (Fc fusion), the MFI at 33.3 nM in assay [1] amounted to 2580 MFI; in [2], 42900 MFI; in [3], 134 MFI.

On to “variant CD80 IgV-Fc M47V/V68M/K89N (Fc fusion)”, for which the MFI at 33.3 nM in assay [1] came out at 11800 MFI; in assay [2] it was 24800 MFI; in assay [3], 1320 MFI.

Consider “variant CD80 IgV-Fc N48K/K89N (Fc fusion)”, for which the figures for the MFI at 33.3 nM in assay [2] and in [3] were 4370 MFI and 170 MFI, respectively.

For the substance “wild-type CD80 IgV-Fc (inert), as in Example 12 (Fc fusion)”, the MFI at 33.3 nM in assay [4] is 102 MFI; in [5], 1380 MFI; in assay [6], 165 MFI.

Regarding variant CD80 IgV-Fc K89N (Fc fusion), the MFI at 33.3 nM stood at 52.8 MFI in [1], 944 MFI in [2] and 56.3 MFI in assay [3].

“variant CD80 IgV-Fc (inert) H18V/A26G/E35D/M47V/V68M/A71G/D90G (Fc fusion)”: the MFI at 33.3 nM worked out at 8190 MFI in [4], 25400 MFI in [5] and 66200 MFI in assay [6].

With variant CD80 IgV-Fc L85Q (Fc fusion), the MFI at 33.3 nM in [1] amounted to 97 MFI; in assay [2], 3000 MFI; in assay [3] it was 35 MFI.

“variant CD80 IgV-Fc E35D/V68M/K89N (Fc fusion)” gave an MFI at 33.3 nM in [2] of 24800 MFI.

In the case of “variant CD80 IgV-Fc H18Y/A26E/E35D/V68M/D90G (Fc fusion)”, the Fold change to WT CD80 in assay [7] is 58.9 fold; in assay [8], 14.2 fold; in assay [9], 532 fold. The MFI at 33.3 nM in assay [7] was determined as 2580 MFI; in [8], 19300 MFI; in assay [9], 23200 MFI. The Ratio of PDL1:CD28 in [10] was determined as 9.

For orientation: EC50 means the concentration that produces a half-maximal response. Lower therefore signals an effect from little substance. Consider “CD80 (A91G/I118V/T120S/T130A) ECD-Fc (Fc fusion)”, for which the results for the MFI at 66.7 nM in assay [4], in [5] and in assay [6] were 720, 24800 and 107, respectively. This substance also had an EC50 in [5] of 4.3 nM.

variant CD80 IgV-Fc V68M (Fc fusion): the MFI at 33.3 nM in assay [1] was 118 MFI; in assay [2] it was 568 MFI; in [3], 37.9 MFI.

With “variant CD80 IgV-Fc E35D/D46V/V68M/L85Q (Fc fusion)”, the MFI at 33.3 nM in assay [1] stood at 23600 MFI; in [2] it was 32200 MFI.

In the case of “CD80 IgV-Fc E24D/Q27R/E35D/T41S/M47V/L85Q (Fc fusion)”, the MFI at 33.3 nM in [4] was 66 MFI; in assay [5], 13900 MFI; in assay [6], 2860 MFI.

Regarding “variant CD80 IgV-Fc E35D/M47L/V68M/L85Q (Fc fusion)”, the MFI at 33.3 nM in assay [1] was determined as 15300 MFI; in [2], 28100 MFI; in assay [3], 159 MFI.

“variant CD80 IgV-Fc D46V/V68M/L85Q (Fc fusion)”: the MFI at 33.3 nM came out at 4170 MFI in assay [1] and 7570 MFI in assay [2].

Regarding WT CD80 ECD-Fc (effector) (Fc fusion), in assay [11], the IL-2 release, primary T cells + K562/OKT3 (No PD-L1), 100 nM was found to be 23100 and the IL-2 release, primary T cells + K562/OKT3/PD-L1, 100 nM is 8390.

Regarding “Wildtype CD80 ECD-Fc (effector Fc, Example 31) (Fc fusion)”, the MFI at 66.7 nM stood at 120 in assay [4], 25300 in [5] and 104 in assay [6]. The substance also yielded an EC50 in assay [5] of 4 nM.

“variant CD80 IgV-Fc (inert) H18V/A26R/E35D/M47L/V68M/A71G/D90G (Fc fusion)”: the MFI at 33.3 nM came out at 9620 MFI in assay [4], 23200 MFI in assay [5] and 73200 MFI in assay [6].

With “variant CD80 IgV-Fc E35D/D46V/M47V/V68M/K89N (Fc fusion)”, the MFI at 33.3 nM in assay [1] was determined as 21600 MFI; in [3], 2120 MFI.

As for “variant CD80 IgV-Fc (inert) H18F/A26H/E35D/M47L/V68M/A71G/D90G (Fc fusion)”, the values for the MFI at 33.3 nM in [4], in [5] and in [6] were 8390 MFI, 16400 MFI and 20700 MFI, respectively.

Regarding CD80 IgV-Fc deltaE10-A98 (Fc fusion), the MFI at 33.3 nM in assay [4] was determined as 15 MFI; in [5] it was 125 MFI; in [6] it was 45 MFI.

For “variant CD80 IgV-Fc M47V/N48K/V68M/K89N (Fc fusion)”, the MFI at 33.3 nM in assay [1] came to 23700 MFI.

In the case of “variant CD80 IgV-Fc D46V/M47L (Fc fusion)”, the MFI at 33.3 nM in assay [1] was determined as 3900 MFI; in assay [2], 49700 MFI.

As for “WT CD80 ECD-Fc (Abcam) (from UniProt P33681) (Fc fusion)”, the MFI at 33.3 nM in [1] came to 128 MFI; in [3] it was 709 MFI.

In the case of “variant CD80 IgV-Fc V68M/L85Q (Fc fusion)”, the MFI at 33.3 nM in [1] was determined as 347 MFI; in assay [2], 3290 MFI; in assay [3], 91.7 MFI.

With “CD80 (E88D/K89R/D90K/A91G/F92Y/K93R) ECD-Fc (Fc fusion)”, the MFI at 66.7 nM in assay [4] was determined as 4050; in [5] it was 26400; in [6] it was 108. This substance displayed an EC50 in assay [5] of 3.6 nM.

Regarding “variant CD80 IgV-Fc H18Y/A26E/M47L/V68M/A71G (Fc fusion)”, the Fold change to WT CD80 in assay [7] is 12.4 fold; in [8], 16 fold; in assay [9], 682 fold. Besides, the results for the MFI at 33.3 nM in assay [7], in assay [8] and in [9] were 544 MFI, 21700 MFI and 29700 MFI, respectively. Besides, in assay [10], the Ratio of PDL1:CD28 came to 54.7.

“CD80 (S21P/L70Q/D90G/I118V/T120S/T130A) ECD-Fc (Fc fusion)”: the values for the MFI at 66.7 nM in [4] and in assay [6] were 282 and 103, respectively. The EC50 in assay [5] is 8.8 nM.

As to “variant CD80 IgV-Fc (inert) H18L/E35D/M47V/V68M/A71G/D90G (Fc fusion)”, the MFI at 33.3 nM worked out at 6350 MFI in [4], 20300 MFI in [5] and 64800 MFI in assay [6].

Consider WT CD80 IgV-Fc (effector) (Fc fusion), for which the IL-2 release, primary T cells + K562/OKT3 (No PD-L1), 100 nM in assay [11] was determined as 6200.

Consider “variant CD80 IgV-Fc M47V/K89N (Fc fusion)”, for which the results for the MFI at 33.3 nM in assay [1], in assay [2] and in [3] were 622 MFI, 32400 MFI and 197 MFI, respectively.

In the case of “variant CD80 IgV-Fc H18Y/A26E/M47L/A71G/D90G (Fc fusion)”, the Fold change to WT CD80 in [7] stood at 46.6 fold; in [8] it was 18.7 fold; in assay [9], 407 fold. In addition, the MFI at 33.3 nM came to 2050 MFI in [7], 25400 MFI in assay [8] and 17700 MFI in [9]. Also, the Ratio of PDL1:CD28 in assay [10] was found to be 8.7.

In the case of variant CD80 IgV-Fc N48K (Fc fusion), the MFI at 33.3 nM came to 481 MFI in assay [1], 4950 MFI in assay [2] and 60.1 MFI in assay [3].

As for “variant CD80 IgV-Fc M47L/V68M/L85Q (Fc fusion)”, the values for the MFI at 33.3 nM in assay [1], in assay [2] and in assay [3] were 4040 MFI, 11100 MFI and 60.9 MFI, respectively.

For “variant CD80 IgV-Fc E35D/N48K/V68M/K89N (Fc fusion)”, the MFI at 33.3 nM turned out to be 17400 MFI in assay [1] and 1530 MFI in [3].

As to “variant CD80 IgV-Fc E35D/D46V/M47L/V68M (Fc fusion)”, the MFI at 33.3 nM worked out at 29300 MFI in [1] and 34300 MFI in assay [2].

“variant CD80 IgV-Fc V68M/K89N (Fc fusion)”: the MFI at 33.3 nM in [1] came to 538 MFI; in assay [2], 2330 MFI.

For “variant CD80 IgV-Fc D46V/M47L/V68M/L85Q (Fc fusion)”, the MFI at 33.3 nM in assay [1] was determined as 29700 MFI; in assay [2], 32500 MFI.

With “variant CD80 IgV-Fc M47V/N48K (Fc fusion)”, the results for the MFI at 33.3 nM in assay [1], in assay [2] and in [3] were 3080 MFI, 44600 MFI and 413 MFI, respectively.

On to “variant CD80 IgV-Fc (inert) H18V/A26P/E35D/M47V/V68L/A71G (Fc fusion)”, for which the MFI at 33.3 nM was determined as 13700 MFI in [5] and 55400 MFI in assay [6].

Take “variant CD80 IgV-Fc N48K/V68M/K89N (Fc fusion)”: the MFI at 33.3 nM in assay [1] amounted to 11500 MFI; in assay [2] it was 19100 MFI.

Substance “CD80 E35D/M43L/L70M IgV-Fc (inert) (Fc fusion)” had a Jurkat/IL2 reporter RLU at 50 nM, CHO/OKT3 aAPC without PD-L1 in assay [12] of 515 RLU.

As to “variant CD80 IgV-Fc N48K/V68M (Fc fusion)”, the results for the MFI at 33.3 nM in [1], in assay [2] and in assay [3] were 754 MFI, 2340 MFI and 118 MFI, respectively.

Regarding Fc control (Example 24), the Fold change to WT CD80 came out at 0.2 fold in assay [4], 0 fold in assay [5] and 1.8 fold in [6]. The MFI at 11.1 nM is 26 MFI in assay [4], 106 MFI in assay [5] and 158 MFI in assay [6].

Turning to “variant CD80 IgV-Fc (inert) H18V/A26N/E35D/M47V/V68M/A71G (Fc fusion)”, the MFI at 33.3 nM came to 22400 MFI in [5] and 68200 MFI in assay [6].

With “variant CD80 IgV-Fc E35D/D46V (Fc fusion)”, the values for the MFI at 33.3 nM in assay [1] and in assay [2] were 3970 MFI and 50100 MFI, respectively.

Regarding WT IgG1 Fc Control, the IL-2 release, primary T cells + K562/OKT3 (No PD-L1), 100 nM in [11] turned out to be 6260.
